Test results published in US20050233973A1, “Tri-peptides for antidepressant applications” (priority 1997, published 2005).
Non-standard residues stand in square brackets, D forms with d. pGlu = O=C1CC[C@@H](C(=O)O)N1

Test system: Porsolt forced swim animal model of depression
Test: Porsolt swim test
Type: in vivo, rats
Conditions: low-dose (0.05 mg/kg ip), three injections
Description: Total immobility time versus swim time was recorded. Both high-dose (0.5 mg/kg sc) and low-dose injections (0.05 mg/kg ip) were used.

Substance	antidepressant effect compared to saline (total immobility time)
[pGlu]-Lys-Pro-NH2 [EKP]	effective

Target: TRH receptor-2 (TRHR-2)
Test: competition with 2 nM [^3H]TRH on HEK293 cells expressing TRHR-2
Conditions: not given

Substance	IC50
[pGlu]-Arg-Pro-NH2	> 100 µg/mL
[pGlu]-Gln-Pro-NH2	7.57 µg/mL
[pGlu]-Glu-Pro-NH2	> 100 µg/mL
[pGlu]-Leu-Pro-NH2	0.66 µg/mL
[pGlu]-Phe-Pro-NH2	1.25 µg/mL

Target: TRH receptor-1 (TRHR-1)
Test: competition with 2 nM [^3H]TRH on HEK293 cells expressing TRHR-1
Conditions: not given

Substance	IC50
[pGlu]-Arg-Pro-NH2	> 100 µg/mL
[pGlu]-Gln-Pro-NH2	9.8 µg/mL
[pGlu]-Glu-Pro-NH2	> 100 µg/mL
[pGlu]-Leu-Pro-NH2	1.85 µg/mL
[pGlu]-Phe-Pro-NH2	1.58 µg/mL

Test system: not listed separately
Test: Binding capacity / concentration in brain areas
Conditions: not given

Substance	binding capacity in limbic and motor areas of the brain compared to the other TRH analogs
[pGlu]-Lys-Pro-NH2 [EKP]	significant binding capacity

Test system: not listed separately
Test: Serum T3 and T4 levels in Porsolt test animals
Type: in vivo, rats
Conditions: animals of the Porsolt test
Description: A Porsolt swim test with rats was used to examine the antidepressant effects of peptides where R^2=Glu or R^2=Phe, as set forth in Lloyd, R. L. et al., Pharamcology, Biochemistry and Behavior, 70:15-22 (2001), incorporated herein by reference. […] No effect of the blocking variable or interaction of the blocking variable with treatment was found.
Using the animal models of Example 11, T3 (triiodothyronine) and T4 (thyroxine) levels were tested. Serum T3 was determined by […], using fluorescence polarization of a fixed concentration of a fluorescent analog of T3 as provided in the Abbott IMX System. T4 was also determined by radioimmunoassay. With EEP, no changes in T3 were observed. […] With ELP (where R^2 is Leu) and EFP there was an increase in T3, but this was not correlated to swim scores, with ELP not producing a behavioral effect, and EFP producing a marginal behavioral effect.

Substance	increase in T3	increase in T4
[pGlu]-Lys-Pro-NH2 [EKP]	48%	57%
